# Target: TrkB (Homo sapiens (Human), UniProt Q16620 32-430)
# Experiment: koff of Fab at 25 C; T1/2=Log2/koff
# In short: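 Monovalent Fab fragments were tested at 25° C by surface plasmon resonance on a Biacore instrument, against TrkB extracellular-domain monomer amine-coupled to the chip at low capacity. Fabs were injected low to high as a 3-fold serial dilution from 100 nM for 84 sec, with a 10 minute dissociation after the top sample. The dissociation half-life was calculated from koff, which was fitted to a Langmuir binding model in BIAevaluation. The formula used was T1/2 = Log 2/koff.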
# Sequence of TrkB (Q16620 32-430 limits assumed): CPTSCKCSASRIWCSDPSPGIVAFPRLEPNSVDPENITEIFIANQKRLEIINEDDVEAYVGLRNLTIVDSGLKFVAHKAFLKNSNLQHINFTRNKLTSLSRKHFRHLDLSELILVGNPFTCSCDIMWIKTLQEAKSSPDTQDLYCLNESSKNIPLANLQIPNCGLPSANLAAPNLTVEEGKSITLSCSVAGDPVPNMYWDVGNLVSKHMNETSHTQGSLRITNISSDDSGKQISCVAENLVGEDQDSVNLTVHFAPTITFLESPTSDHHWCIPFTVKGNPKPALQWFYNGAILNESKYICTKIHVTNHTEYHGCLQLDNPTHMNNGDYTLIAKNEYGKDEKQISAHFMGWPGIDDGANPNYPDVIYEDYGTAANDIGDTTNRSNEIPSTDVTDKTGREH
row,T1/2 [s],Binder
1,300,"16-B2 (Fab, V domains shown, Fab) VH: QVQLVQSGAEVKKPGASVKVSCKASGYTFTNYDIIWVRQAPGQGLEWMGYINPYNDGTKYNEKFKGRVTMTRDTSTSTVYMELSSLRSEDTAVYYCARLLKYRRFRYYAIDYWGQGTTVTVSS VL: DIQMTQSPSSLSASVGDRVTITCRASENVYSNLAWYQQKPGKAPKLLIYAASNLQSGVPSRFSGSGSGTDFTFTISSLQPEDIATYYCQHFWGSPFTFGQGTKLEIK"
2,28.8,"2-F10 (Fab, V domains shown, Fab) VH: QVQLVQSGAEVKKPGASVKVSCKASGYTFTNYVILWVRQAPGQGLEWMGYINPYNDGTKYNEKFKGRVTMTRDTSTSTVYMELSSLRSEDTAVYYCARLLKYRRFSYYAIDYWGQGTTVTVSS VL: DIQMTQSPSSLSASVGDRVTITCRASENVYSNLAWYQQKPGKAPKLLIYAASNLQSGVPSRFSGSGSGTDFTFTISSLQPEDIATYYCQVFWYSPFTFGQGTKLEIK"
3,24,"1-G12 (Fab, V domains shown, Fab) VH: QVQLVQSGAEVKKPGASVKVSCKASGYTFTNYVILWVRQAPGQGLEWMGYINPYNDGTKYNEKFKGRVTMTRDTSTSTVYMELSSLRSEDTAVYYCARLLKYRRFSYYAIDYWGQGTTVTVSS VL: DIQMTQSPSSLSASVGDRVTITCRASENVYSNLAWYQQKPGKAPKLLIYAASNLQSGVPSRFSGSGSGTDFTFTISSLQPEDIATYYCQHFWYSPFGFGQGTKLEIK"
4,64.8,"1-A11 (Fab, V domains shown, Fab) VH: QVQLVQSGAEVKKPGASVKVSCKASGYTFTNYVILWVRQAPGQGLEWMGYINPYNDGTKYNEKFKGRVTMTRDTSTSTVYMELSSLRSEDTAVYYCARLLKYRRFSYYAIDYWGQGTTVTVSS VL: DIQMTQSPSSLSASVGDRVTITCRASENVYSNLAWYQQKPGKAPKLLIYAASNLQSGVPSRFSGSGSGTDFTFTISSLQPEDIATYYCQHFWYSPFTFGQGTKLEIK"
5,43.2,"1-B11 (Fab, V domains shown, Fab) VH: QVQLVQSGAEVKKPGASVKVSCKASGYTFTNYVILWVRQAPGQGLEWMGYINPYNDGTKYNEKFKGRVTMTRDTSTSTVYMELSSLRSEDTAVYYCARLLKYRRFSYYAIDYWGQGTTVTVSS VL: DIQMTQSPSSLSASVGDRVTITCRASENVYSNLAWYQQKPGKAPKLLIYAASNLQSGVPSRFSGSGSGTDFTFTISSLQPEDIATYYCQNFWYSPFTFGQGTKLEIK"
6,33,"1-B10 (Fab, V domains shown, Fab) VH: QVQLVQSGAEVKKPGASVKVSCKASGYTFTNYVILWVRQAPGQGLEWMGYINPYNDGTKYNEKFKGRVTMTRDTSTSTVYMELSSLRSEDTAVYYCARLLKYRRFSFYAIDYWGQGTTVTVSS VL: DIQMTQSPSSLSASVGDRVTITCRASENVYSNLAWYQQKPGKAPKLLIYAASNLQSGVPSRFSGSGSGTDFTFTISSLQPEDIATYYCQGFWYSPFTFGQGTKLEIK"
7,19.2,"2-B1 (Fab, V domains shown, Fab) VH: QVQLVQSGAEVKKPGASVKVSCKASGYTFTNYVILWVRQAPGQGLEWMGYINPYNDGTKYNEKFKGRVTMTRDTSTSTVYMELSSLRSEDTAVYYCARLLKYRRFSYYAIDYWGQGTTVTVSS VL: DIQMTQSPSSLSASVGDRVTITCRASENVYSNLAWYQQKPGKAPKLLIYAASNLQSGVPSRFSGSGSGTDFTFTISSLQPEDIATYYCQNFWYSPFTFGQGTKLEIK"
8,55.2,"1-D3 (Fab, V domains shown, Fab) VH: QVQLVQSGAEVKKPGASVKVSCKASGYTFTNYVILWVRQAPGQGLEWMGYINPYNDGTKYNEKFKGRVTMTRDTSTSTVYMELSSLRSEDTAVYYCARLLKYRRFSYYAIDEWGQGTTVTVSS VL: DIQMTQSPSSLSASVGDRVTITCRASENVYSNLAWYQQKPGKAPKLLIYAASNLQSGVPSRFSGSGSGTDFTFTISSLQPEDIATYYCQHFWYSPFTFGQGTKLEIK"
9,25.2,"1-A6 (Fab, V domains shown, Fab) VH: QVQLVQSGAEVKKPGASVKVSCKASGYTFTNYVILWVRQAPGQGLEWMGYINPYNDGTKYNEKFKGRVTMTRDTSTSTVYMELSSLRSEDTAVYYCARLLKYRRHSYYAIDYWGQGTTVTVSS VL: DIQMTQSPSSLSASVGDRVTITCRASENVYSNLAWYQQKPGKAPKLLIYAASNLQSGVPSRFSGSGSGTDFTFTISSLQPEDIATYYCQHFWKSPFTFGQGTKLEIK"
10,34.2,"2-A2 (Fab, V domains shown, Fab) VH: QVQLVQSGAEVKKPGASVKVSCKASGYTFTNYVILWVRQAPGQGLEWMGYINPYNDGTKYNEKFKGRVTMTRDTSTSTVYMELSSLRSEDTAVYYCARLLKYRRLSYYAIDYWGQGTTVTVSS VL: DIQMTQSPSSLSASVGDRVTITCRASENVYSNLAWYQQKPGKAPKLLIYAASNLQSGVPSRFSGSGSGTDFTFTISSLQPEDIATYYCQHFWYSPFTFGQGTKLEIK"
11,18,"2-G12 (Fab, V domains shown, Fab) VH: QVQLVQSGAEVKKPGASVKVSCKASGYTFTNYVILWVRQAPGQGLEWMGYINPYNDGTKYNEKFKGRVTMTRDTSTSTVYMELSSLRSEDTAVYYCARLLKYRRFRYYAIDYWGQGTTVTVSS VL: DIQMTQSPSSLSASVGDRVTITCRASENVYSNLAWYQQKPGKAPKLLIYAASNLQSGVPSRFSGSGSGTDFTFTISSLQPEDIATYYCQHFWYRPFTFGQGTKLEIK"
12,52.2,"3-B11 (Fab, V domains shown, Fab) VH: QVQLVQSGAEVKKPGASVKVSCKASGYTFTNYVILWVRQAPGQGLEWMGYINPYNDGTKYNEKFKGRVTMTRDTSTSTVYMELSSLRSEDTAVYYCARLLKYRRFRYYAIDYWGQGTTVTVSS VL: DIQMTQSPSSLSASVGDRVTITCRASENVYSNLAWYQQKPGKAPKLLIYAASNLQSGVPSRFSGSGSGTDFTFTISSLQPEDIATYYCQHFWYSGFTFGQGTKLEIK"
13,50.4,"3-C12 (Fab, V domains shown, Fab) VH: QVQLVQSGAEVKKPGASVKVSCKASGYTFTNYVILWVRQAPGQGLEWMGYINPYNDGTKYNEKFKGRVTMTRDTSTSTVYMELSSLRSEDTAVYYCARLLKYRRFSYYAIDYWGQGTTVTVSS VL: DIQMTQSPSSLSASVGDRVTITCRASENVYSNLAWYQQKPGKAPKLLIYAASNLQSGVPSRFSGSGSGTDFTFTISSLQPEDIATYYCQHFWGSPFTFGQGTKLEIK"
14,37.2,"1-H6 (Fab, V domains shown, Fab) VH: QVQLVQSGAEVKKPGASVKVSCKASGYTFTNYVILWVRQAPGQGLEWMGYINPYNDGTKYNEKFKGRVTMTRDTSTSTVYMELSSLRSEDTAVYYCARLLKYRRFSYYAIDYWGQGTTVTVSS VL: DIQMTQSPSSLSASVGDRVTITCRASENVYSNLAWYQQKPGKAPKLLIYAASNLQSGVPSRFSGSGSGTDFTFTISSLQPEDIATYYCQHFWWSPFTFGQGTKLEIK"
15,13.8,"2-F6 (Fab, V domains shown, Fab) VH: QVQLVQSGAEVKKPGASVKVSCKASGYTFTNYVILWVRQAPGQGLEWMGYINPYNDGTKYNEKFKGRVTMTRDTSTSTVYMELSSLRSEDTAVYYCARLLKYRRFRYYAIDYWGQGTTVTVSS VL: DIQMTQSPSSLSASVGDRVTITCRASENVYSNLAWYQQKPGKAPKLLIYAASNLQSGVPSRFSGSGSGTDFTFTISSLQPEDIATYYCQHFWYSPFTFGQGTKLEIK"
16,62.4,"1-E9 (Fab, V domains shown, Fab) VH: QVQLVQSGAEVKKPGASVKVSCKASGYTFTNYVILWVRQAPGQGLEWMGYINPYNDGTKYNEKFKGRVTMTRDTSTSTVYMELSSLRSEDTAVYYCARLLKYRRMSYYAIDYWGQGTTVTVSS VL: DIQMTQSPSSLSASVGDRVTITCRASENVYSNLAWYQQKPGKAPKLLIYAASNLQSGVPSRFSGSGSGTDFTFTISSLQPEDIATYYCQHFWYSPFTFGQGTKLEIK"
